The results in this text go back to patent publication US20260297190 (published 2026).

Numbering of substitutions follows the chain as printed.

B1: DARPin protein #3 (designed binder)
chain: DLGRKLLQAAARGQDDEVRELLKAGADVNAKDLHGRTPLHLAAAIGHLEIVEVLLKAGADVNAKDFLGWTPLHIAAFRGHLEIVEVLLKAGADVNAQDEAGETPADLAAQEGHEDIAEVLQKAA
B2: DARPin protein #6 (designed binder)
chain: B1 chain with F66V, L67F, W69Y, A100R, Q110E, E111A
B3: DARPin protein #4 (designed binder)
chain: DLGKKLLQAAARGQDDEVRELLKAGADVNAKDLKGRTPLHLAAATGHPEIVEVLLKAGADVNAKDQFGYTPLHIAAAWGHLEIVEVLLKAGADVNAQDQKGETPADLAAKEGHEDIAEVLQKAA
B4: DARPin protein #2 (designed binder)
chain: DLGIKLLHAAFQGQDDEVRILLAAGADVNAKDKVGRTPLHRAAQWGHLEIVEVLLKAGADVNAKDHVGWTPLHLAAWRGHLEIVEVLLKAGADVNAQDASGFTPADLAARQGHEDIAEVLQKAA
B5: DARPin protein #1 (designed binder)
chain: ALGKKLLQAAARGQDDEVRELLKAGADVNAKDLIGRTPLHLAASIGHLEIVEVLLKAGADVNAKDSRGWTPLHIAAVSGHLEIVEVLLKAGADVNAQDRAGATPADLAAAEGNEDIAEVLQKAA
B6: DARPin protein #5 (designed binder)
chain: DLGRKLLQAAARGQDDEVRELLKAGADVNAKDLLGRTPLHLAASIGHLEIVEVLLKAGADVNAKDERGFTPLHIAALQGHLEIVEVLLKAGADVNAQDLEGRTPADLAAEEGHEDIAEVLQKAA
B7: DARPin protein #7 (designed binder)
chain: B6 chain with R4E, Q8K, F69Y, L77I, Q78V, L99A, E100R, R102A, E110R
B8: DARPin protein #8 (designed binder)
chain: B6 chain with R4K, E66S, I74L, L77I, Q78I, E100K, R102L, E110A

What is called EC50 is the concentration at which the effect is half-maximal. For orientation: Kd means the constant that tells how readily two partners part at equilibrium. Higher therefore signals weaker binding.

The target in one assay is CD47 on Raji cells (human, UniProt Q08722). In words: FACS, Raji cells, 4C. (In general: Flow cytometry measures light scatter and fluorescence of single cells or particles in a stream.)
CD47 on Raji cells, sequence (Q08722 19-323): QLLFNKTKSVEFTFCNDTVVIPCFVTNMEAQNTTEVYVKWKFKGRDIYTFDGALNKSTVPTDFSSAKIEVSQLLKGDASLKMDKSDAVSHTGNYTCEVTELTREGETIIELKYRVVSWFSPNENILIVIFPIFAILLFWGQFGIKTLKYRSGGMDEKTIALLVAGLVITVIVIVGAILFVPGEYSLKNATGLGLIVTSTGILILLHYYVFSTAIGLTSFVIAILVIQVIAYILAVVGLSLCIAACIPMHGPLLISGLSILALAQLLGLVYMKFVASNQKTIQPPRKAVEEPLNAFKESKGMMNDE
In turn, B1 yielded an EC50 of 58.4 nM.
As to B2, the concentration for a half-maximal effect (EC50) is 48 nM. This EC50 and that of the molecule before are within 1.5-fold of each other.
Same read-out and setting: then B3, with 74.7 nM; and B4, with 20.9 nM; and B5, with 40.4 nM.
Still for that read-out and setting: then B6, with 45.5 nM.
Consider B7, for which the EC50 came out at 28.5 nM. Against the preceding molecule, the EC50 is about 1.6-fold lower.
With B8, a half-maximal response (EC50) required 17.2 nM. This EC50 lies about 1.7-fold lower than the previous one.

In a further assay the target is human CD47-Fc (human). In words: SPR. In general terms: In SPR one partner is held on a chip, and binding of the other changes the refractive index at the surface.
human CD47-Fc (human), sequence (chain, as listed by the source): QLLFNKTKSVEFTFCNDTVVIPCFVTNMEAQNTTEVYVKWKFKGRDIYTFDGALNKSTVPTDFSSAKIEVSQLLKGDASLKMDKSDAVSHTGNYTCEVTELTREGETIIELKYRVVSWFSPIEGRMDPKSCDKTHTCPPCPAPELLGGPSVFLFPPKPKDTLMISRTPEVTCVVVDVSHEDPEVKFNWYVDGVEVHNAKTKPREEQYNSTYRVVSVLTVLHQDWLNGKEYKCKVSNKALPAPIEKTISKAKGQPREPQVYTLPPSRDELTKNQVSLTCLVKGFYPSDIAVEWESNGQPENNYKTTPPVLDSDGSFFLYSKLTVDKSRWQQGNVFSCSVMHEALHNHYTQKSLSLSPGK
B1: the Kd came to 0.562 nM.
B2 came in with a Kd of 0.24 nM. This Kd is about 2.3-fold lower than that of the molecule before.
Still for that read-out and setting: the value for B3 was 0.244 nM.
Turning to B4, the Kd amounted to 0.813 nM. Against the preceding molecule, the Kd is about 3.3-fold higher.
On the same count and under the same terms, the value for B5 was 0.328 nM; that for B6 was 0.552 nM.
For the molecule B7, the affinity, expressed as Kd, was 0.352 nM.
B8 showed a Kd of 0.102 nM.
